Tests used:
[1] = target: human α7nAChR deletion mutant Δ419-423, His-tagged (human) (UniProt P36544); assay: pull-down; His-tag α7nAChR (~3 μM) as bait mixed with strep-tag PICK1 PDZ (~10 μM), Ni-NTA resin, overnight at 4°C, 10 mM phosphate pH 7.8, 150 mM NaCl, 0.05% LDAO, two washes with 50 mM imidazole, elution with 500 mM imidazole, SDS-PAGE, band intensities
[2] = target: human α7nAChR deletion mutant Δ428-432, His-tagged (human) (UniProt P36544); assay: as above
α7nAChR (Homo sapiens) = α7nAChR (Homo sapiens) (UniProt P36544); conditions: cited from earlier work

Row | Substance | reduction of pulldown compared to WT α7nAChR [1] [%] | reduction of pulldown compared to WT α7nAChR [2] [%] | Kd (α7nAChR (Homo sapiens)) [nM]
1 | PDZ domain of human PICK1 (Protein Interacting with C-kinase 1), strep-tagged (from UniProt Q9NRD5 19-110) (domain or fragment) | 50 | 85 | –
2 | PICK1 PDZ (from UniProt Q9NRD5) | – | – | 3000
